Measurements from patent US20260201033A1 (LTZ THERAPEUTICS, published 2026).

What was measured:
[1] = molecular target: T1, CD79b on Ramos cells and on endogenous B cells of human PBMCs (human, UniProt P40259 29-229); assay: cell-based or functional assay
T1 sequence (looked up): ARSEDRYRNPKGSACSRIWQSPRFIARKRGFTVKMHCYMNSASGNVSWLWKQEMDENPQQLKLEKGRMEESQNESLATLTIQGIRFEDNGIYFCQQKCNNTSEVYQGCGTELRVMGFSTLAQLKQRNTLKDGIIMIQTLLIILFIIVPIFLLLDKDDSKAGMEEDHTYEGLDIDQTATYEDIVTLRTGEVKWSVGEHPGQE

[2] = molecular target: T1, CD79b on Ramos cells and on endogenous …; assay: cell-based or functional assay; remark: listed apart in the source
[3] = molecular target: T1, CD79b on Ramos cells and on endogenous …; assay: cell-based or functional assay; remark: listed apart in the source
[4] = molecular target: T1, CD79b on Ramos cells and on endogenous …; assay: cell-based or functional assay; remark: listed apart in the source
[5] = molecular target: T1, CD79b on Ramos cells and on endogenous …; assay: cell-based or functional assay; remark: listed apart in the source
[6] = molecular target: T1, CD79b on Ramos cells and on endogenous …; assay: cell-based or functional assay; remark: listed apart in the source
[7] = molecular target: T2, Human CLEC5A His Tag protein (ACROBiosystems, Cat #: CLA-H5243) (human, UniProt Q9NY25 28-188, limits assumed); assay: ELISA, plate coated with human CLEC5A
T2 construct: Bought protein with a His tag; also called recombinant human CLEC5A protein
T2 sequence: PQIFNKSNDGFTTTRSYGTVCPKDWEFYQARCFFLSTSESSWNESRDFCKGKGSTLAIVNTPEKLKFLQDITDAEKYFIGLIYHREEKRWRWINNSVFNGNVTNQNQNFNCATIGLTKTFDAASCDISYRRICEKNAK
Procedure: Protein antigen was aspirated, and wells were washed 3 times with 400 μL of wash buffer (0.05% Tween® 20 in PBS) using a plate washer. Anti-CLEC5A antibodies were prepared as the primary antibody at 5 μg/mL and serially diluted 3-fold through 11 points (diluted concentrations) with reagent buffer (PBS+0.05% BSA). 100 μL of primary antibody was added to appropriate wells and incubated for 1 hour at room temperature. Primary antibody was aspirated, and wells were washed 3 times with 400 μL of wash buffer (0.05% Tween® 20 in PBS) using a plate washer. […] Secondary antibody was aspirated, and wells were washed 3 times with 400 μL of wash buffer (0.05% Tween® 20 in PBS) using a plate washer. […] 100 μL of Fisher 1N Sulfuric Acid (Cat #: SA212-2) stop solution was added to each well and the plate was read in a plate reader at 450 nm. For analysis, OD450 of each antibody was plotted using GraphPad Prism software (Version 9.4.1; GraphPad Software Inc.).

B1: CD79b/5C7 (2+1 B) Fc-silenced (bispecific antibody, human IgG1, kappa, L234A L235A)
heavy 1: EQQLVETGGGLIQPGGSLRLSCAASGFTINIDYWISWVRQAPGKGLEWIGIIDPGDGTTYFAIWVSGRFTISFDNSKNTVYLQMNSLRAEDTAVYFCVREFSASAYQYDLWGPGTLVTVSSASTKGPSVFPLAPSSKSTSGGTAALGCLVKDYFPEPVTVSWNSGALTSGVHTFPAVLQSSGLYSLSSVVTVPSSSLGTQTYICNVNHKPSNTKVDKKVEPKSCDKTHTCPPCPAPEAAGGPSVFLFPPKPKDTLMISRTPEVTCVVVDVSHEDPEVKFNWYVDGVEVHNAKTKPREEQYNSTYRVVSVLTVLHQDWLNGKEYKCKVSNKALGAPIEKTISKAKGQPREPQVCTLPPSRDELTKNQVSLSCAVKGFYPSDIAVEWESNGQPENNYKTTPPVLDSDGSFFLVSKLTVDKSRWQQGNVFSCSVMHEALHNRFTQKSLSLSPGK
heavy 2: not shown
light: ELVMTQSPATLSVSPGERATLSCRASEDIENYLAWYQQKPGQPPRLLIYRASTLSSGVPARFSGSGSGTEFTLTISSLQSEDFAVYYCQQGYRNSNVDNPFGGGTKVEIKRTVAAPSVFIFPPSDEQLKSGTASVVCLLNNFYPREAKVQWKVDNALQSGNSQESVTEQDSKDSTYSLSSTLTLSKADYEKHKVYACEVTHQGLSSPVTKSFNRGEC
IC50 (nM), Ramos cell killing by M2 macrophages, Donor 022 [1]: 0.002 nM | IC50 (nM), Ramos cell killing by M2 macrophages, Donor 431 [1]: 0.002 nM | IC50 (nM), Ramos cell killing by M0 macrophages, Donor 022 [2]: 0.003 nM | IC50 (nM), Ramos cell killing by M0 macrophages, Donor 431 [2]: 0.002 nM | IC50 (nM), Ramos cell killing by PBMCs (test 2), Donor 431 [3]: 0.0155 nM | IC50 (nM), Ramos cell killing by PBMCs (test 3), Donor 281 [4]: 0.0165 nM | IC50 (nM), Ramos cell killing by PBMCs (test 3), Donor 367 [4]: 0.0685 nM | IC50 (nM), killing of endogenous B cells by PBMCs, Donor 367 [5]: 0.0155 nM | IC50 (nM), killing of endogenous B cells by PBMCs, Donor 431 [5]: 0.0155 nM | IC50 (nM), Ramos cell killing by M1 macrophages, Donor 431 [6]: 0.005 nM

B2: CD79b/5C7 (2+1 B) Fc-optimized (bispecific antibody, human IgG1, kappa)
heavy 1: EQQLVETGGGLIQPGGSLRLSCAASGFTINIDYWISWVRQAPGKGLEWIGIIDPGDGTTYFAIWVSGRFTISFDNSKNTVYLQMNSLRAEDTAVYFCVREFSASAYQYDLWGPGTLVTVSSASTKGPSVFPLAPSSKSTSGGTAALGCLVKDYFPEPVTVSWNSGALTSGVHTFPAVLQSSGLYSLSSVVTVPSSSLGTQTYICNVNHKPSNTKVDKKVEPKSCDKTHTCPPCPAPELLAGPSVFLFPPKPKDTLMISRTPEVTCVVVDVSHEDPEVKFNWYVDGVEVHNAKTKPREEQYNSTYRVVSVLTVLHQDWLNGKEYKCKVSNKALPLPEEKTISKAKGQPREPQVYTLPPSRDELTKNQVSLSCAVKGFYPSDIAVEWESNGQPENNYKTTPPVLDSDGSFFLVSKLTVDKSRWQQGNVFSCSVMHEALHNHYTQKSLSLSPGK
heavy 2: EQQLVETGGGLIQPGGSLRLSCAASGFTINIDYWISWVRQAPGKGLEWIGIIDPGDGTTYFAIWVSGRFTISFDNSKNTVYLQMNSLRAEDTAVYFCVREFSASAYQYDLWGPGTLVTVSSASTKGPSVFPLAPSSKSTSGGTAALGCLVKDYFPEPVTVSWNSGALTSGVHTFPAVLQSSGLYSLSSVVTVPSSSLGTQTYICNVNHKPSNTKVDKKVEPKSCDKTHTCPPCPAPELLAGPSVFLFPPKPKDTLMISRTPEVTCVVVDVSHEDPEVKFNWYVDGVEVHNAKTKPREEQYNSTYRVVSVLTVLHQDWLNGKEYKCKVSNKALPLPEEKTISKAKGQPREPQVYTLPPSRDELTKNQVSLWCLVKGFYPSDIAVEWESNGQPENNYKTTPPVLDSDGSFFLYSKLTVDKSRWQQGNVFSCSVMHEALHNHYTQKSLSLSPGKGGGGSGGGGSGGGGSDIQMTQSPSSLSASVGDRVTITCQASESVDRNNRLAWFQQKPGKPPKLLIYTTSTLASGVPSRFSGSGSGTDFTLTISSLQPEDVATYYCAGYRGAHTDGDAFGGGTKVEIKGGGGSGGGGSGGGGSGGGGSEQQLVESGGGLVKPGGSLRLSCAASGFSFSRSSYMCWVRQAPGKGLEWIGCLSVGDGHTYYASWAKGRFTISKDSAKNSVYLQMNSLRAEDTAVYFCARAPSYSGDGGHGYDLWGPGTLVTVSS
light: ELVMTQSPATLSVSPGERATLSCRASEDIENYLAWYQQKPGQPPRLLIYRASTLSSGVPARFSGSGSGTEFTLTISSLQSEDFAVYYCQQGYRNSNVDNPFGGGTKVEIKRTVAAPSVFIFPPSDEQLKSGTASVVCLLNNFYPREAKVQWKVDNALQSGNSQESVTEQDSKDSTYSLSSTLTLSKADYEKHKVYACEVTHQGLSSPVTKSFNRGEC
IC50 (nM), Ramos cell killing by M2 macrophages, Donor 022 [1]: 0.002 nM | IC50 (nM), Ramos cell killing by M2 macrophages, Donor 431 [1]: 0.001 nM | IC50 (nM), Ramos cell killing by M0 macrophages, Donor 022 [2]: 0.003 nM | IC50 (nM), Ramos cell killing by M0 macrophages, Donor 431 [2]: 0.004 nM | IC50 (nM), Ramos cell killing by PBMCs (test 2), Donor 234 [3]: 0.0639 nM | IC50 (nM), Ramos cell killing by PBMCs (test 2), Donor 431 [3]: 0.0104 nM | IC50 (nM), Ramos cell killing by PBMCs (test 3), Donor 281 [4]: 0.0112 nM | IC50 (nM), Ramos cell killing by PBMCs (test 3), Donor 367 [4]: 0.0186 nM | IC50 (nM), killing of endogenous B cells by PBMCs, Donor 234 [5]: 0.0207 nM | IC50 (nM), killing of endogenous B cells by PBMCs, Donor 367 [5]: 0.104 nM | IC50 (nM), killing of endogenous B cells by PBMCs, Donor 431 [5]: 0.104 nM | IC50 (nM), Ramos cell killing by M1 macrophages, Donor 431 [6]: 0.005 nM

B3: CD79b/5C7 (1+1 B) Fc-silenced (bispecific antibody, human IgG1, kappa, L234A L235A)
heavy 1: EQQLVETGGGLIQPGGSLRLSCAASGFTINIDYWISWVRQAPGKGLEWIGIIDPGDGTTYFAIWVSGRFTISFDNSKNTVYLQMNSLRAEDTAVYFCVREFSASAYQYDLWGPGTLVTVSSASTKGPSVFPLAPSSKSTSGGTAALGCLVKDYFPEPVTVSWNSGALTSGVHTFPAVLQSSGLYSLSSVVTVPSSSLGTQTYICNVNHKPSNTKVDKKVEPKSCDKTHTCPPCPAPEAAGGPSVFLFPPKPKDTLMISRTPEVTCVVVDVSHEDPEVKFNWYVDGVEVHNAKTKPREEQYNSTYRVVSVLTVLHQDWLNGKEYKCKVSNKALGAPIEKTISKAKGQPREPQVCTLPPSRDELTKNQVSLSCAVKGFYPSDIAVEWESNGQPENNYKTTPPVLDSDGSFFLVSKLTVDKSRWQQGNVFSCSVMHEALHNRFTQKSLSLSPGK
heavy 2: not shown
light: ELVMTQSPATLSVSPGERATLSCRASEDIENYLAWYQQKPGQPPRLLIYRASTLSSGVPARFSGSGSGTEFTLTISSLQSEDFAVYYCQQGYRNSNVDNPFGGGTKVEIKRTVAAPSVFIFPPSDEQLKSGTASVVCLLNNFYPREAKVQWKVDNALQSGNSQESVTEQDSKDSTYSLSSTLTLSKADYEKHKVYACEVTHQGLSSPVTKSFNRGEC
IC50 (nM), Ramos cell killing by M2 macrophages, Donor 100 [1]: 0.002 nM | IC50 (nM), Ramos cell killing by M2 macrophages, Donor 233 [1]: 0.005 nM | IC50 (nM), Ramos cell killing by M2 macrophages, Donor 431 [1]: 0.003 nM | IC50 (nM), Ramos cell killing by M0 macrophages, Donor 100 [2]: 0.006 nM | IC50 (nM), Ramos cell killing by M0 macrophages, Donor 233 [2]: 0.003 nM | IC50 (nM), Ramos cell killing by M0 macrophages, Donor 431 [2]: 0.004 nM | IC50 (nM), Ramos cell killing by PBMCs (test 2), Donor 431 [3]: 0.0329 nM | IC50 (nM), Ramos cell killing by PBMCs (test 3), Donor 022 [4]: 0.334 nM | IC50 (nM), Ramos cell killing by PBMCs (test 3), Donor 281 [4]: 0.0452 nM | IC50 (nM), Ramos cell killing by PBMCs (test 3), Donor 367 [4]: 0.29 nM | IC50 (nM), killing of endogenous B cells by PBMCs, Donor 023 [5]: 0.0833 nM | IC50 (nM), killing of endogenous B cells by PBMCs, Donor 367 [5]: 0.0329 nM | IC50 (nM), killing of endogenous B cells by PBMCs, Donor 431 [5]: 0.0329 nM | IC50 (nM), Ramos cell killing by M1 macrophages, Donor 100 [6]: 0.001 nM | IC50 (nM), Ramos cell killing by M1 macrophages, Donor 431 [6]: 0.005 nM

B4: CD79b/5C7 (2+1 A) Fc-silenced (bispecific antibody, human IgG1, kappa, L234A L235A)
heavy 1: EQQLVETGGGLIQPGGSLRLSCAASGFTINIDYWISWVRQAPGKGLEWIGIIDPGDGTTYFAIWVSGRFTISFDNSKNTVYLQMNSLRAEDTAVYFCVREFSASAYQYDLWGPGTLVTVSSASTKGPSVFPLAPSSKSTSGGTAALGCLVKDYFPEPVTVSWNSGALTSGVHTFPAVLQSSGLYSLSSVVTVPSSSLGTQTYICNVNHKPSNTKVDKKVEPKSCDGGGGSGGGGSGGGGSEQQLVETGGGLIQPGGSLRLSCAASGFTINIDYWISWVRQAPGKGLEWIGIIDPGDGTTYFAIWVSGRFTISFDNSKNTVYLQMNSLRAEDTAVYFCVREFSASAYQYDLWGPGTLVTVSSASTKGPSVFPLAPSSKSTSGGTAALGCLVKDYFPEPVTVSWNSGALTSGVHTFPAVLQSSGLYSLSSVVTVPSSSLGTQTYICNVNHKPSNTKVDKKVEPKSCDKTHTCPPCPAPEAAGGPSVFLFPPKPKDTLMISRTPEVTCVVVDVSHEDPEVKFNWYVDGVEVHNAKTKPREEQYNSTYRVVSVLTVLHQDWLNGKEYKCKVSNKALGAPIEKTISKAKGQPREPQVCTLPPSRDELTKNQVSLSCAVKGFYPSDIAVEWESNGQPENNYKTTPPVLDSDGSFFLVSKLTVDKSRWQQGNVFSCSVMHEALHNRFTQKSLSLSPGK
heavy 2: not shown
light: ELVMTQSPATLSVSPGERATLSCRASEDIENYLAWYQQKPGQPPRLLIYRASTLSSGVPARFSGSGSGTEFTLTISSLQSEDFAVYYCQQGYRNSNVDNPFGGGTKVEIKRTVAAPSVFIFPPSDEQLKSGTASVVCLLNNFYPREAKVQWKVDNALQSGNSQESVTEQDSKDSTYSLSSTLTLSKADYEKHKVYACEVTHQGLSSPVTKSFNRGEC
IC50 (nM), Ramos cell killing by M2 macrophages, Donor 022 [1]: 0.003 nM | IC50 (nM), Ramos cell killing by M2 macrophages, Donor 100 [1]: 0.001 nM | IC50 (nM), Ramos cell killing by M0 macrophages, Donor 022 [2]: 0.003 nM | IC50 (nM), Ramos cell killing by M0 macrophages, Donor 100 [2]: 0.002 nM | IC50 (nM), Ramos cell killing by M1 macrophages, Donor 100 [6]: 0.001 nM

B5: h13E6, humanized anti-CLEC5A antibody (antibody, V domains shown)
VH: EQQLLESGGGLVQPGGSLRLSCAASGFSFSSSYWLCWVRQAPGKGLEWIACIYGGSSRGTYYASWAKGRFTISKDSSKNTVYLQMNSLRAEDTAVYFCASHTYTYPRFSPYFNLWGPGTLVTVSS
VL: EFVMTQSPATLSVSPGERATLSCQASEDIESSLAWYQQKPGQPPRLLIYDASDLESGVPARFSGSGSGTEYTLTISSLQSEDFAVYFCQSAYYTGSADNTFGGGTKVEIK
notes: also called humanized 13E6
EC50 [7]: 120 pM
